Results on nine molecules are retold here after patent publication US20230235004A1 (published 2023).

The target in experiment [1] is T1, human MAdCAM protein (human, UniProt Q13477 19-317, limits assumed).
T1 construct: also called soluble monomeric human MAdCAM; recombinant human MAdCAM
T1 sequence (looked up): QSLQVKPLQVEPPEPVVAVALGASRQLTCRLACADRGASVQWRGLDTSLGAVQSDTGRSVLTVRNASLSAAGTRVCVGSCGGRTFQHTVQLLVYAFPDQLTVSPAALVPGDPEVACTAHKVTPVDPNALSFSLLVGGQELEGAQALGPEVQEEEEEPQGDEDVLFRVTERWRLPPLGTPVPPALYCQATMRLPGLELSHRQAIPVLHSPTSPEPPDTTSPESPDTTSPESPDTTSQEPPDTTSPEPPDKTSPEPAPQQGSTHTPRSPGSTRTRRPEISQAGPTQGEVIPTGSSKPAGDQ
Description: Octet. Background: Biolayer interferometry detects binding as a change in optical thickness at a sensor tip.

The target in experiment [2] is T2, recombinant mouse MAdCAM-1 (mouse, UniProt Q61826 22-364, limits assumed).
T2 construct: also called mMAdCAM-1
T2 sequence (looked up): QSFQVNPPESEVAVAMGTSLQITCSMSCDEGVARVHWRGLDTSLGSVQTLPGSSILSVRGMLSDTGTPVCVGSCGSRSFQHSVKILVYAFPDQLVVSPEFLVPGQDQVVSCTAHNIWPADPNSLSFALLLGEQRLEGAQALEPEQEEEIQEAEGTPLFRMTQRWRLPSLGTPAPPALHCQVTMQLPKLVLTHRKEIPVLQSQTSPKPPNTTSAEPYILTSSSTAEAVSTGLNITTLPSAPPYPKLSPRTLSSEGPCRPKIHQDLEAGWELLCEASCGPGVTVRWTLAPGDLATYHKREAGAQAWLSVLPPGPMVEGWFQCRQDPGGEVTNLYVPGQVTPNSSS
The experiment is described as follows: Octet.

Experiment [3] concerns the target T3, human MAdCAM expressed on cells (human, UniProt Q13477 19-382).
T3 construct: whole, on cells
T3 sequence (looked up): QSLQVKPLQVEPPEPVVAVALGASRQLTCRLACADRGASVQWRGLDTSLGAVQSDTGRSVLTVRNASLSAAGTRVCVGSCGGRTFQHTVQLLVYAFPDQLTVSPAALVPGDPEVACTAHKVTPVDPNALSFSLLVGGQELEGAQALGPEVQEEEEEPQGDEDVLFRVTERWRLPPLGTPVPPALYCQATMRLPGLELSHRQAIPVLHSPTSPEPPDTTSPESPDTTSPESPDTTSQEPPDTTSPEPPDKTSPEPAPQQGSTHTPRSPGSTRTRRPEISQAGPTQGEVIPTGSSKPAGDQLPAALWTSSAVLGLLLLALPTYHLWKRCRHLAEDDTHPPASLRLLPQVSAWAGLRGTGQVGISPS
The experiment is described as follows: cell binding.

In experiment [4] the target is T4, mouse MAdCAM expressed on cells (mouse, UniProt Q61826 22-405).
T4 construct: whole, on cells
T4 sequence (looked up): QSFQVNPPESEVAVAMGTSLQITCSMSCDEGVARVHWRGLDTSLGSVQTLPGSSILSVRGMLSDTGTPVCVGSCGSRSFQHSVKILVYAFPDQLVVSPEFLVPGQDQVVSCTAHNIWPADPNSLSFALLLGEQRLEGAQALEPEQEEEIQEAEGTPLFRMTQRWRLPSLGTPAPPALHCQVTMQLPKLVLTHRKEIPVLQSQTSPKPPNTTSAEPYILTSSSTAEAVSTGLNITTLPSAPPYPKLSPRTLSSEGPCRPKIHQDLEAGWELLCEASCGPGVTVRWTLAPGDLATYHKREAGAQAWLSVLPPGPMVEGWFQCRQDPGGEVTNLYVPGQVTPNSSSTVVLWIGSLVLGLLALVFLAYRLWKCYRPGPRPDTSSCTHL
The experiment is described as follows: cell binding.

B1: MAdCAM antibody Table 1 clone 4 (scFv)
scFv: QVQLVQSGAEVKKPGASVKVSCKASGGTFSSYAISWVRQAPGQGLEWMGSINPSGDTTSYAQKFQGRVTMTRDTSTSTVYMELSSLRSEDTAVYYCAKDKAQWLVGYFDYWGQGTLVTVSSGGGGSGGGGSGGGGSGGGGSDIQMTQSPSSLSASVGDRVTITCQASQDISNSLNWYQQKPGKAPKLLIYAASSLQSGVPSRFSGSGSGTDFTLTISSLQPEDFATYYCQQSYSSVITFGQGTKVEIK
For the molecule B1, the binding result in experiment [1], in experiment [2], in experiment [3] and in experiment [4] was “binds” throughout.

B2: MAdCAM antibody Table 1 clone 5 (scFv)
scFv: EVQLLESGGGLVQPGGSLRLSCAASGFTFSSYWMHWVRQAPGKGLEWVSSISPGGSNIDYADSVKGRFTISRDNSKNTLYLQMNSLRAEDTAVYYCAREVQLSHYDYWGQGTLVTVSSGGGGSGGGGSGGGGSGGGGSDIQMTQSPSSLSASVGDRVTITCRASQGISNSLAWYQQKPGKAPKLLIYGASSLQSGVPSRFSGSGSGTDFTLTISSLQPEDFATYYCQQANSFPFTFGQGTKVEIK
B2: the binding result in experiment [1], in experiment [2], in experiment [3] and in experiment [4] was “binds” in each case.

B3: MAdCAM antibody Table 1 clone 23 (scFv)
scFv: EVQLLESGGGLVQPGGSLRLSCAASGFTFSSYAMHWVRQAPGKGLEWVSGISGSGGSAYYADSVKGRFTISRDNSKNTLYLQMNSLRAEDTAVYYCATSQAPVDYYYYGMDVWGQGTTVTVSSGGGGSGGGGSGGGGSGGGGSDIQMTQSPSSLSASVGDRVTITCRASQSISSWLAWYQQKPGKAPKLLIYAASNLQRGVPSRFSGSGSGTDFTLTISSLQPEDFATYYCQQSYSIPITFGQGTKVEIK
As for B3, the binding result in experiment [1] is listed as “binds”; in experiment [2], “no binding”; in experiment [3], “binds”; in experiment [4] it was “no binding”.

B4: MAdCAM antibody Table 1 clone 6 (scFv)
scFv: EVQLLESGGGLVQPGGSLRLSCAASGFTFNNYAFHWVRQAPGKGLEWVSRINSYGTSTTYADSVKGRFTISRDNSKNTLYLQMNSLRAEDTAVYYCAREGPVAGYWYFDLWGQGTLVTVSSGGGGSGGGGSGGGGSGGGGSDIQMTQSPSSLSASVGDRVTITCRASQIIGTNLAWYQQKPGKAPKLLIYGASSLQSGVPSRFSGSGSGTDFTLTISSLQPEDFATYYCQQSYRLPFTFGQGTKVEIK
For the molecule B4, the binding result was “binds” in experiment [1], “no binding” in experiment [2], “binds” in experiment [3] and “no binding” in experiment [4].

B5: MAdCAM antibody Table 1 clone 2 (scFv)
scFv: QVQLVQSGAEVKKPGASVKVSCKASGYPFIGYYLHWVRQAPGQGLEWMGIINPSGGSTSYAQKFQGRVTMTRDTSTSTVYMELSSLRSEDTAVYYCAREGRLSYGMDAWGQGTLVTVSSGGGGSGGGGSGGGGSGGGGSDIQMTQSPSSLSASVGDRVTITCRASQSISSYLAWYQQKPGKAPKLLIYGASTLESGVPSRFSGSGSGTDFTLTISSLQPEDFATYYCQQTWGPPFTFGQGTKLEIK
B5: the binding result in experiment [1], in experiment [2], in experiment [3] and in experiment [4] was “binds” each time.

B6: MAdCAM antibody Table 1 clone 63 (scFv)
scFv: EVQLLESGGGLVKPGGSLRLSCAASGFTFDDYAMHWVRQAPGKGLEWVASITSSSAFIDYAASVKGRFTISRDDSKNTLYLQMNSLKTEDTAVYYCARERVDWNSYFDLWGRGTLVTVSSGGGGSGGGGSGGGGSGGGGSEIVMTQSPATLSVSPGERATLSCRASQGISNSYLAWYQQKPGQAPRLLIYGASTRATGIPARFSGSGSGTEFTLTISSLQSEDFAVYYCQQYYTYPPTFGPGTKVDIK
On to B6, for which the binding result in experiment [1], in experiment [2], in experiment [3] and in experiment [4] was “binds” throughout.

B7: MAdCAM antibody Table 1 clone 19 (scFv)
scFv: EVQLLESGGGLVQPGGSLRLSCAASGFTFDDYAMHWVRQAPGKGLEWVSGISWNSGSIGYADSVKGRFTISRDNSKNTLYLQMNSLRAEDTAVYYCAKDIVAAGHYYYGMDVWGQGTTVTVSSGGGGSGGGGSGGGGSGGGGSDIQMTQSPSSLSASVGDRVTITCQASQDISNYLNWYQQKPGKAPKLLIYDASNLETGVPSRFSGSGSGTDFTLTISSLQPEDFATYYCQQSYSTPLTFGGGTKVEIK
For B7, the binding result in experiment [1] was “binds”; in experiment [2] it was “no binding”; in experiment [3], “binds”; in experiment [4] it was “no binding”.

B8: MAdCAM antibody Table 1 clone 59 (scFv)
scFv: EVQLLESGGGLVQPGGSLRLSCAASGFTFSDFWMHWVRQAPGKGLEWISYISGDSGYTNYADSVKGRFTISRDNSKNTLYLQMNSLRAEDTAVYYCARDRPYYYYMDVWGKGTTVTVSSGGGGSGGGGSGGGGSGGGGSDIQMTQSPSSLSASVGDRVTITCRASQSVSRSLAWYQQKPGKAPKLLIYAASSLQSGVPSRFSGSGSGTDFTLTISSLQPEDFATYYCQQYKSYPVTFGQGTKVEIK
Turning to B8, the binding result in experiment [1], in experiment [2], in experiment [3] and in experiment [4] was “binds” in each case.

B9: MAdCAM antibody Table 1 clone 20 (scFv)
scFv: EVQLLESGGGLVQPGGSLRLSCAASGFTFDDYAMHWVRQAPGKGLEWVSYIDTSSSHLYYADSVKGRFTISRDNSKNTLYLQMNSLRAEDTAVYYCARDEAAAGYYGMDVWGQGTTVTVSSGGGGSGGGGSGGGGSGGGGSDIQMTQSPSSLSASVGDRVTITCQAGQDISNYLNWYQQKPGKAPKLLIYDASNLETGVPSRFSGSGSGTDFTLTISSLQPEDFATYYCQQTYSTPITFGQGTKLEIK
On to B9, for which the binding result is recorded as “binds” in experiment [1], “no binding” in experiment [2], “binds” in experiment [3] and “no binding” in experiment [4].
